Assay results published in publication PMC2856898 (The Journal of Cell Biology, 2010).

T1: His6-Dsn1 (subunit of the recombinant Mis12 complex) (human, UniProt Q9H410 1-356)
T1 sequence (looked up): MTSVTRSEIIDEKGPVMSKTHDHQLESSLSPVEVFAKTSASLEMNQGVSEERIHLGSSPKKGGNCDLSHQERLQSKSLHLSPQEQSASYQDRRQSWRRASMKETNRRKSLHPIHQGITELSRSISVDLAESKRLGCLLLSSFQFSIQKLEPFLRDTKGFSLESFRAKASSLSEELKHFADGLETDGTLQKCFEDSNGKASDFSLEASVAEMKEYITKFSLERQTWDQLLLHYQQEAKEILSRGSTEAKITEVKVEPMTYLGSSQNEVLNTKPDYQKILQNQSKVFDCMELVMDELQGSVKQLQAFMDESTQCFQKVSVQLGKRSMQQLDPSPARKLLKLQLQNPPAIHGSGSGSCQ


Biological target: T1, His6-Dsn1 (subunit of the recombinant …)
Test: co-sedimentation

Binder	binding result
Nnf1 (subunit of the recombinant Mis12 complex) (natural protein, human, UniProt Q6P1K2 1-205, looked up) MAEASSANLGSGCEEKRHEGSSSESVPPGTTISRVKLLDTMVDTFLQKLVAAGSYQRFTDCYKCFYQLQPAMTQQIYDKFIAQLQTSIREEISDIKEEGNLEAVLNALDKIVEEGKVRKEPAWRPSGIPEKDLHSVMAPYFLQQRDTLRRHVQKQEAENQQLADAVLAGRRQVEELQLQVQAQQQAWQALHREQRELVAVLREPE	binds
Nsl1 (subunit of the recombinant Mis12 complex) (natural protein, human, UniProt Q96IY1 1-281, looked up) MAGSPELVVLDPPWDKELAAGTESQALVSATPREDFRVRCTSKRAVTEMLQLCGRFVQKLGDALPEEIREPALRDAQWTFESAVQENISINGQAWQEASDNCFMDSDIKVLEDQFDEIIVDIATKRKQYPRKILECVIKTIKAKQEILKQYHPVVHPLDLKYDPDPAPHMENLKCRGETVAKEISEAMKSLPALIEQGEGFSQVLRMQPVIHLQRIHQEVFSSCHRKPDAKPENFITQIETTPTETASRKTSDMVLKRKQTKDCPQRKWYPLRPKKINLDT	binds
Mis12 (subunit of the recombinant Mis12 complex) (natural protein, human, UniProt Q9H081 1-205, looked up) MSVDPMTYEAQFFGFTPQTCMLRIYIAFQDYLFEVMQAVEQVILKKLDGIPDCDISPVQIRKCTEKFLCFMKGHFDNLFSKMEQLFLQLILRIPSNILLPEDKCKETPYSEEDFQHLQKEIEQLQEKYKTELCTKQALLAELEEQKIVQAKLKQTLTFFDELHNVGRDHGTSDFRESLVSLVQNSRKLQNIRDNVEKESKRLKIS	binds
